B1: LINE1-full (parent)
chain: UACGUAGGUGGUUUUCCCCUGAUAGUGCUAAGGGGGCCUGGAAGUUUGGACUGGGCAGAGCUCAACACAGCGUGGCAAAGUGGCUGUGGCUAGACUGCCUCUCUGGAUUCCUCGUCACUCAGCAGGGCAUCUCUGAGAGAAAUGCC

Variants of B1 are the subject of the data set. As to the kind of experiment: self-cleavage, relative activity (ratio to wild type); higher = more cleavage; in vitro, sequencing; the parent is a self-cleaving ribozyme.
UACGUAGGUGGUUUUCCCCUGAUAGUGCUAAGGGGGCCUGGAAGUUUGGACUGGGCAGAGCUCAACACAGCGUGGCAAAGUGGAUGUGGCUAGACUGCCCCUCUGGAUUCCUCGUCACUCAGCAGGGCAUCUCUGAGAGAAAUGCC: the self-cleavage is 0.14.

For the variant UACGUAGGUGGUUUUCCCCUGAUAGUGCUAAGGGGGCCUGGAAGUUUGGACUGGGCAGAGCUCAACACAGCGUGGCAAAGUGGCAGUGGCUAGACUGCCUCUCUGGAUUCCUCGUCACUCAGCAGGGCAUCUCUGUGAGAAAUGCC, the self-cleavage stood at 0.19. UACGUAGGUGGUUUUCCCCUGAUAGUGCUAAGGGGGCCUGGAAGUUUGGACUGGGCAGAGCUCAACACAGCGUGGCAAAGUGGUUGUGGCUAGACUGCCUCUCUGGAUUCCUCGUCACUCAGCGGGGCAUCUCUGAGAGAAAUGCC: the self-cleavage was found to be 0.11. The result for UACGUAGGUGGUUUUCCCCUGAUAGUGCUAAGGGGGCCUGGAAGUUUGGACUGGGCAGAGCUCAACACAGCGUGGCAAAGUGGCAGUGGCUAGACUGCCUCUCUGGAUUCCUCGUCACUCUGCAGGGCAUCUCUGAGAGAAAUGCC reads 0.07. The same measure for UACGUAGGUGGUUUUCCCCUGAUAGUGCUAAGGGGGCCUGGAAGUUUGGACUGGGCAGAGCUCAACACAGCGUGGCAAAGUGUCUGUGGCUAGACUGCCUCUCUGGAUUCCCCGUCACUCAGCAGGGCAUCUCUGAGAGAAAUGCC: 0.85.

Regarding UACGUAGGUGGUUUUCCCCUGAUAGUGCUAAGGGGGCCUGGAAGUUUGGACUGGGCAGAGCUCAACACAGCGUGGCAAAGUGGGUGUGGCUAGACUGCCCCUCUGGAUUCCUCGUCACUCAGCAGGGCAUCUCUGAGAGAAAUGCC, the self-cleavage came to 0.07.

As for UACGUAGGUGGUUUUCCCCUGAUAGUGCUAAGGGGGCCUGGAAGUUUGGACUGGGCAGAGCUCAACACAGCGUGGCAAAGUGGAUGUGGCUAGACUGCCUCUCUGGAUUCCUCGUCACUCAGCAGGGCACCUCUGAGAGAAAUGCC, the self-cleavage worked out at 0.15. The result for UACGUAGGUGGUUUUCCCCUGAUAGUGCUAAGGGGGCCUGGAAGUUUGGACUGGGCAGAGCUCAACACAGCGUGGCAAAGUGGCAGUGGCUAGACUGCGUCUCUGGAUUCCUCGUCACUCAGCAGGGCAUCUCUGAGAGAAAUGCC reads 0.05; that for UACGUAGGUGGUUUUCCCCUGAUAGUGCUAAGGGGGCCUGGAAGUUUGGACUGGGCAGAGCUCAACACAGCGUGGCAAAGUGGUUGUGGCUAGACUGCCUCUCUGGAUUCCUCGUCACUCGGCAGGGCAUCUCUGAGAGAAAUGCC, 0.2; that for UACGUAGGUGGUUUUCCCCUGAUAGUGCUAAGGGGGCCUGGAAGUUUGGACUGGGCAGAGCUCAACACAGCGUGGCAAAGUGGCAGUGGCUAGACUGCCUCUCUGGAUUCCUCGUCACUCAGCAGGGCAUCUCUGAGAGAACUGCC, 0.14. The result for UACGUAGGUGGUUUUCCCCUGAUAGUGCUAAGGGGGCCUGGAAGUUUGGACUGGGCAGAGCUCAACACAGCGUGGCAAAGUGGUUGUGGCUAGACUGCCUCUCUGGAUUCCUCGUCACUCAGCAGGGCAUCUCUGUGAGAAAUGCC reads 0.13; that for UACGUAGGUGGUUUUCCCCUGAUAGUGCUAAGGGGGCCUGGAAGUUUGGACUGGGCAGAGCUCAACACAGCGUGGCAAAGUGGCAGUGGCUAGACUGCCUCUCUGGUUUCCUCGUCACUCAGCAGGGCAUCUCUGAGAGAAAUGCC, 0.08. With UACGUAGGUGGUUUUCCCCUGAUAGUGCUAAGGGGGCCUGGAAGUUUGGACUGGGCAGAGCUCAACACAGCGUGGCAAAGUGGUUGUGACUAGACUGCCUCUCUGGAUUCCUCGUCACUCAGCAGGGCAUCUCUGAGAGAAAUGCC, the self-cleavage was 0.04. With UACGUAGGUGGUUUUCCCCUGAUAGUGCUAAGGGGGCCUGGAAGUUUGGACUGGGCAGAGCUCAACACAGCGUGGCAAAGUGGUUGUGGCUAGACUGCCUCUCUGGAUUCCUCGUCACUCAGCAGGGCAUCUCUGAGGGAAAUGCC, the self-cleavage amounted to 0.13. On to UACGUAGGUGGUUUUCCCCUGAUAGUGCUAAGGGGGCCUGGAAGUUUGGACUGGGCAGAGCUCAACACAGCGUGGCAAAGUGGUUGUGGCUAGACUGCCUCUCUGGAUUCCACGUCACUCAGCAGGGCAUCUCUGAGAGAAAUGCC, for which the self-cleavage turned out to be 0.11. The same measure for UACGUAGGUGGUUUUCCCCUGAUAGUGCUAAGGGGGCCUGGAAGUUUGGACUGGGCAGAGCUCAACACAGCGUGGCAAAGUGGGUGUGGCUAGACUGCCUCUCUGGAUUCCUCGUCACUCAGCAGGGCGUCUCUGAGAGAAAUGCC: 0.2; for UACGUAGGUGGUUUUCCCCUGAUAGUGCUAAGGGGGCCUGGAAGUUUGGACUGGGCAGAGCUCAACACAGCGUGGCAAAGUGGGUGUGGCUAGACUGCCUCUCUGGAUUCCUCGUCACUCAGCAGGGCAUCUCUGAGAGAAAUGCC: 0.09. With UACGUAGGUGGUUUUCCCCUGAUAGUGCUAAGGGGGCCUGGAAGUUUGGACUGGGCAGAGCUCAACACAGCGUGGCAAAGUGGUUGUGGCUAGACUGCCUCUCUGGAUUCCUCGUCACUCAGCAGGGCAUCUCUGAGAGAAAUGCC, the self-cleavage is 0.14.

On to UACGUAGGUGGUUUUCCCCUGAUAGUGCUAAGGGGGCCUGGAAGUUUGGACUGGGCAGAGCUCAACACAGCGUGGCAAAGUGGAUGUGGCUAGACUGCCUCUCUGGAUUCCUCGUCACUCAGCAGGGCAUCUCUGAGAGAAAUGCC, for which the self-cleavage is 0.1. The result for UACGUAGGUGGUUUUCCCCUGAUAGUGCUAAGGGGGCCUGGAAGUUUGGACUGGGCAGAGCUCAACACAGCGUGGCAAAGUGGCAGUGGCUAGACUGCCUCUCUGGAUUCCUCGUCACUCAGCCGGGCAUCUCUGAGAGAAAUGCC reads 0.08; that for UACGUAGGUGGUUUUCCCCUGAUAGUGCUAAGGGGGCCUGGAAGUUUGGACUGGGCAGAGCUCAACACAGCGUGGCAAAGUGGCAGUGGCUAGACUGCCUCUCUGGAUUCCUCGUCACUCAGCGGGGCAUCUCUGAGAGAAAUGCC, 0.04. The same measure for UACGUAGGUGGUUUUCCCCUGAUAGUGCUAAGGGGGCCUGGAAGUUUGGACUGGGCAGAGCUCAACACAGCGUGGCAAAGUGGUUGUGGCUAGACUGCCCCUCUGGAUUCCUCGUCACUCAGCAGGGCAUCUCUGAGAGAAAUGCC: 0.21; for UACGUAGGUGGUUUUCCCCUGAUAGUGCUAAGGGGGCCUGGAAGUUUGGACUGGGCAGAGCUCAACACAGCGUGGCAAAGUGGCAGUGGCUAGUCUGCCUCUCUGGAUUCCUCGUCACUCAGCAGGGCAUCUCUGAGAGAAAUGCC: 0.07; for UACGUAGGUGGUUUUCCCCUGAUAGUGCUAAGGGGGCCUGGAAGUUUGGACUGGGCAGAGCUCAACACAGCGUGGCAAAGUGGGUGUGGCUAGUCUGCCUCUCUGGAUUCCUCGUCACUCAGCAGGGCAUCUCUGAGAGAAAUGCC: 0.13. The result for UACGUAGGUGGUUUUCCCCUGAUAGUGCUAAGGGGGCCUGGAAGUUUGGACUGGGCAGAGCUCAACACAGCGUGGCAAAGUGGGUGUGGCUAGACUGCCUCUCUGGAUUCCUCGUCACUCAGCAGGGCAUCUCUGAGAGAAAUGCA reads 0.1. As to UACGUAGGUGGUUUUCCCCUGAUAGUGCUAAGGGGGCCUGGAAGUUUGGACUGGGCAGAGCUCAACACAGCGUGGCAAAGUGGAUGUGGCUAGACUGCCUCUCUGGAUUCCUCGUCACUCAGCAGGGCAUCUCUGAGAGAGAUGCC, the self-cleavage worked out at 0.09.

Regarding UACGUAGGUGGUUUUCCCCUGAUAGUGCUAAGGGGGCCUGGAAGUUUGGACUGGGCAGAGCUCAACACAGCGUGGCAAAGUGGUUGUGGCUAGACUGCCUCUCUGGAUUCCUCGUCACUCAGCAGGGCAUCUCUGAGAGAAACGCC, the self-cleavage is 0.1. With UACGUAGGUGGUUUUCCCCUGAUAGUGCUAAGGGGGCCUGGAAGUUUGGACUGGGCAGAGCUCAACACAGCGUGGCAAAGUGGUUGUGGCUAGACUGCCUCUCUGGAUUCCUCGUCACUCAGCAGGGCAUCUCCGAGAGAAAUGCC, the self-cleavage is 0.19. For the variant UACGUAGGUGGUUUUCCCCUGAUAGUGCUAAGGGGGCCUGGAAGUUUGGACUGGGCAGAGCUCAACACAGCGUGGCAAAGUGGAUGUGGCUAGACUGCCUCUCUGGAAUCCUCGUCACUCAGCAGGGCAUCUCUGAGAGAAAUGCC, the self-cleavage is 0.12. The result for UACGUAGGUGGUUUUCCCCUGAUAGUGCUAAGGGGGCCUGGAAGUUUGGACUGGGCAGAGCUCAACACAGCGUGGCAAAGUGGUUGCGGCUAGACUGCCUCUCUGGAUUCCUCGUCACUCAGCAGGGCAUCUCUGAGAGAAAUGCC reads 0.04; that for UACGUAGGUGGUUUUCCCCUGAUAGUGCUAAGGGGGCCUGGAAGUUUGGACUGGGCAGAGCUCAACACAGCGUGGCAAAGUGGGUGUGGCUAAACUGCCUCUCUGGAUUCCUCGUCACUCAGCAGGGCAUCUCUGAGAGAAAUGCC, 0.08; that for UACGUAGGUGGUUUUCCCCUGAUAGUGCUAAGGGGGCCUGGAAGUUUGGACUGGGCAGAGCUCAACACAGCGUGGCAAAGUGGAUGUGGCCAGACUGCCUCUCUGGAUUCCUCGUCACUCAGCAGGGCAUCUCUGAGAGAAAUGCC, 0.13. In the case of UACGUAGGUGGUUUUCCCCUGAUAGUGCUAAGGGGGCCUGGAAGUUUGGACUGGGCAGAGCUCAACACAGCGUGGCAAAGUGGUUGUGGCUAGACUGCCUCUCUGGAUUCCUCGUCACUCAGCAGGGCGUCUCUGAGAGAAAUGCC, the self-cleavage is 0.18. The same measure for UACGUAGGUGGUUUUCCCCUGAUAGUGCUAAGGGGGCCUGGAAGUUUGGACUGGGCAGAGCUCAACACAGCGUGGCAAAGUGGCAGUGGCUAGACUGACUCUCUGGAUUCCUCGUCACUCAGCAGGGCAUCUCUGAGAGAAAUGCC: 0.07; for UACGUAGGUGGUUUUCCCCUGAUAGUGCUAAGGGGGCCUGGAAGUUUGGACUGGGCAGAGCUCAACACAGCGUGGCAAAGUGGCAGUGGCUAGACUGGCUCUCUGGAUUCCUCGUCACUCAGCAGGGCAUCUCUGAGAGAAAUGCC: 0.28.

For the variant UACGUAGGUGGUUUUCCCCUGAUAGUGCUAAGGGGGCCUGGAAGUUUGGACUGGGCAGAGCUCAACACAGCGUGGCAAAGUGGCAGUGGCUAGACUGUCUCUCUGGAUUCCUCGUCACUCAGCAGGGCAUCUCUGAGAGAAAUGCC, the self-cleavage is 0.09. The same measure for UACGUAGGUGGUUUUCCCCUGAUAGUGCUAAGGGGGCCUGGAAGUUUGGACUGGGCAGAGCUCAACACAGCGUGGCAAAGUGGAUGUGGCUAGACUGCCUCUCUGGAUUCCUCGUCACUCAGCAGGGCAUCUCUGAGAGAAAUGUC: 0.08. The same measure for UACGUAGGUGGUUUUCCCCUGAUAGUGCUAAGGGGGCCUGGAAGUUUGGACUGGGCAGAGCUCAACACAGCGUGGCAAAGUGGUUGUGGCUAGGCUGCCUCUCUGGAUUCCUCGUCACUCAGCAGGGCAUCUCUGAGAGAAAUGCC: 0.04.

In the case of UACGUAGGUGGUUUUCCCCUGAUAGUGCUAAGGGGGCCUGGAAGUUUGGACUGGGCAGAGCUCAACACAGCGUGGCAAAGUGGUUGUGGCUAGACUGCCUCUCUGGAUUCCUCGUCACUCAGCAGGGCAUCCCUGAGAGAAAUGCC, the self-cleavage stood at 0.14.

These data come from the RNAGym collection of RNA variant scans (doi:10.7554/elife.90254).
